This test concerns the target EnvZ(C)(223-289) (Escherichia coli).

In turn, EnvZ(C)(290-450) (enzyme) displayed a trans-autophosphorylation of sub-domain A with [gamma-32P]ATP, autoradiography of 5%.

The values above are taken from patent publication US6077682.
